In patent US20250249113A1 (DEBIOPHARM RESEARCH AND MANUFACTURING S A, published 2025):
Primed or numbered codes have the meaning given here. Side-chain parts run from the residue outwards. PEG4′ = not defined here; Mal = not defined here

Target: recombinant human Cathepsin B (human, UniProt P07858 80-333)
Test: cell-based or functional assay

## {DM1-Mal}-FKK([PEG4′-Mal-Cys-Ac])F-OH (reading uncertain; also: printed as DM1-Mal-Phe-Lys-Lys(PEG4-Mal-Cys-Ac)-Phe-OH) [Compound 5: DM1-Mal-Phe-Lys-Lys(PEG4-Mal-Cys-Ac)-Phe-OH]
  Cat B-induced drug release, fold faster than the reference Cys-MC-Val-Cit-PABC-MMAF: 20 times
